Assay results as given in the DeepSol protein solubility set.

Assay: soluble on expression in E. coli; label from the status in PepcDB or PDB records

MQTQEVVIKPTLKVLLKSDSQNLEEVVVTAMGIKRSEKSLGYAVSSVKGDEITKARESNVLNSLSGKIAGLQIAQSSGTVGGSSSIQIRGASSIGTVSSPLFIIDGLPIDNGSYNPDRTNGIVDVGNRAGDINSDDIESINVLKGAAATALYGARAKDGAIVITTKKGKKNSPVFVTVNSSTRFENVLKLPDFQNEYAQGSYGVYNVKMLNGWGPKISSVQDQQFTDYKGDKVTLKANPDNVKDFYETGMSYINNVSVAGGGEKADFRLSFTSTNQTGVVPGSDYNKYAFSVNAGMNFTSNFTGRISAQYIRSDSEGRPAQGANDSNLLIPLINGLPRTIDIHDIKQNWIDENGKQVTLDPEGKSNNPYWIINKNKFTNNLDRMIGNITLTYKPIEGLTITNNAGTDFYTEGRRKLYAKGTVGALNGKFQTWNLYKRIINNDLMVSYEKTFANDYHFKAMVGHNLYQEEWKNENVQAQNLVVDGLYTYTNAKSTTPVNYYEKKRLVGLYGDISLGYKDMLFINVTGRNDWSSTLPINNRSYFYPSISGSFIFTELMENKDILNYGKIRLSYANVGSDEDPYNLAFKYTPASTYFLQYLGNVNTFPHMGLVGFTGPRVLPNENLKPQNQSSFEVGADLRFFGGKIRLDMTYYSNITKNQIVSIDVPLSTGYFANNINAGKIANKGVEVTLGLTPVETRNFKWDLDATFASNKQTVEELAEGLDEYTLTSGLSGLQIKAAKGDSFGLYGTAWKRDDQGNYVINSKTGLRETVNNVRLGDVYPDFTMGINNTLTYKGLTFSFLIDIRHGGSLYSETVANLRSSGLAAETVAHREDASFIEPGVILQDDGTYRPNDVPVKSMQDYWQHVANSSNNEGNIYNASFVKLREVQLSYSFPRKWFKSFFVKSLDLGFEARNLWIIKDHVPHIDPEANFFGPSQIGGGVEFNSIPSTRSFGFNLRLTL
soluble on expression in E. coli: not soluble

GKSASMAVEEIASRKDISLRDMQISAILKMLFLNKDLNNNDNITTITDDIFNQQEIIWKVLILDIKSTATISSVLRVNDLLKAGITVHSLIKQDRSPLPDVPAIYFVSPTKENIDIIVNDLKSDKYSEFYINFTSSLPRNLLEDLAQQVSITGKSDKIKQVYDQYLDFIVTEPELFSLEISNAYLTLNDPKTTEEEITGLCANIADGLFNTVLTINSIPIIRAAKGGPAEIIAEKLGTKLRDFVINTNSSSTSTLQGNDSLERGVLIILDRNIDFASMFSHSWIYQCMVFDIFKLSRNTVTIPLESKENGTDNTTAKPLATKKYDIEPNDFFWMENSHLPFPEAAENVEAALNTYKEEAAEITRKTGVTNISDLDPNSNNDTVQIQEVVKKLPELTAKKNTIDTHMNIFAALLSQLESKSLDTFFEVEQDPGSTKTRSRFLDILKDGKTNNLEDKLRSFIVLYLTSTTGLPKDFVQNVENYFKENDYDINALKYVYKLREFMQLSNMSLQNKSLEDGSDSAFKPSNLTLSGIYGLTEGKLQGGVGSLISGIKKLLPEKKTIPITNVVDAIMDPLNSSQKNLETTDSYLYIDPKITRGSHTRKPKRQSYNKSLVFVVGGGNYLEYQNLQEWAHSQLHNPKKVMYGSTAITTPAEFLNEISRLGASNSSNNDA
soluble on expression in E. coli: soluble

MEHSLPPYRLRRSPRAKYLRLLIRPDGIEVVVPTGLSDATVLAFVRQHGGWAQARLEELLARLAKLRQGQAERFPAEGGSVPLEGRETPLFIEETGGSRIRVSLEDQGLRLILPRTCGADRDRYVRDALFGWMKRRLPGRVTELIERHAPLHGLYPRQLRIKSMRTRWGSCGPANDINLNWLLGLAPLSVLEYVVVHELCHIRHRNHSRDFWELVAAHLPDWRQERQWLKAHGGGLIQRFDPAFRLEHHHHHH
soluble on expression in E. coli: soluble

MTSPASCSPPNEKRTGSPFPPESRSLPSTMEMTMNTIFRPAPHPLPDAPFYTPLGNECVLFESAWVRQLPLLLKGPTGCGKTRFVSHMAAKLGLPLSTISCHDDLAAADLTGRYLLKGGETVWMDGPLTRSVRQGGICYLDEIVEARKDVAVVLHPLTDDRRILPLERTGEVLEAPSGFMLVVSYNPGYQNLLKSLKPSTRQRFVAIEFDFLPKEQEIAVVSHESGLDARDVEPLVDLAHRLRGLKGHDLEEGVSTRLLVYCASLIDTGLPARQAVRATMIEPLTDEPDVKAALHEVADAIIRLEHHHHHH
soluble on expression in E. coli: not soluble

MTTPSPQEISTVTLNSLSKEERKKAILALQTKKNEIKLVIDEHQKKLAEFRQSIPDGCCEMFENEKKIRLKHSSTAELLPHLQKVGSSSVDKEKMINNIRQRVEVQVADQETFKSIEERNELLRRENENLKKEVNTVAAELLQEFESYE
soluble on expression in E. coli: not soluble

MAARHAVRGGTVYGGGNGYRVNLVGRGTGGSTMVHHQPLNRISSQRSVAPVGRVLNRGALRNGAQQPLHVSTSSPAFHYMEEQPSPTTNGMVIQAKTPGAGVIQARHMQSQQSFPSGGPARVLMNRSSTNAGLSRMVGGGYDQQLPTAPNGRLMIPSTAVRVPGSGMASPRLQTTPQPLTKSQKAKDEMKMAYQVGREEALQQRRNDLEDDEENLGYAETYSEYTPAKLRSGMAHPDSVVESASLSSVSPPDVKYQISIPEYLIDMGHISALQLEAVIYACQMHERRMPSGERYGYLIGDGAGVGKGRTVACIIFENYLQGRKRAIWLSVSSDLKFDAERDLRDCGAPNIPVYALNKMKYAKISGKENGSIKKGVMFATYTSLIGECRGAKSRKYRSRISQLIQWFGQDYDGVIILDECHRAKNLVPTAGAKPTKTGRMVLELQKALPNARVVYASATGATEPRNMAYMTRLGLWGERQAFPEFHDFISAVERRGVGAMEIVAMDMKQRGLYLARQLSFRGVSFAVQEVQLSSEFVKMYDAAVKLWMEARRQFQTVIETMDEEERSTCKTVWGQFWACHQRFFKYLCIAAKVDTCVQLSREAIKAKKCVVIGLQSTGESATLETLEEMGGELNEFVSTAKTVLYGLIDKHFPTDASFSMGDRDIFKDFDDFERPAKRRKTRETLSFLGDVGFDTWTGVTTGMGGRVGDGVTKNITRGLSGIGRSSMSSSTGNTNNEDANSTTSESSDGSDDEVENDMISENGGESGDLESAREEAEGARTLEDGEQDEWVKALLAEAESSSDDSDEEVVKDEDEDEEAESKSGETHEQEEEFNPFMCDFTNDDPWAHNQQIVEDTPQKDRKAKKRKRDEEEAERLREKVRKREERREKKRRRAIRRAEREKQRRNEELQARGSATDFITSSRICGNGSGEQDDINPMLIKTELLAAVERLAPSLPANTLDQLIDEMGGPEYVAEMTGRRGHMVTSETGDVMYQRRNANAEVSLELINMEEKEKFMRGEKLIAIISEAASSGISLQSDRRAINKRRRVHITLELPWSADKAIQQFGRTHRSNQVSGPEYVFLISELAGEKRFASIVAKRLESLGALTHGDRRATETRDLSQFNMDNKYGRVALDTLLKTVIGQAGTPLIDPPKDYKAGEFFEDMRLYMEGVGLLAKNKTGQYTIEKEAATIPKFLNRILGLPVHAQNSLFHYFSEIVAELIAQSKHDGTYDTGIMDLGTGDDQVRKLETRVFTGRVDNGSFRVEIHKIGVERGVSWEEAMELHKEHSNDDDGFYICHPGGANTANTKKVAALVYGIGKIRMDNGARLYAITRPSTGRSPKLMTMADLSKRFHKVSIDEAKEVWKQQYDSAANMCQHNYVYGKCRTESNGTYCEVGRRTRTYFVLSGSVLSVWPIVEEVLAGSDRKSSRMQVIRVRTEQDQKIVGKLVVFFGK
soluble on expression in E. coli: not soluble

GMTDGEAVSAAAGPGAEGPPGPVGHWAPGSHILWRYRENGGPHVHIARPVTVVRDDADLLAVWLAPGTECVKPVLADGTPVHLEPLATRYTKPRTVQRDQWFGTGVLKLARPGEAWSVWLFWDPGWRFKNWYVNLERPLTRWEGGVDSEDHFLDISVHPDRTWHWRDEDEFAQALRDGLMDPASAGRVRRAGRSAVAEIRAWGSPFADGWEHWRPDPAWPVPSLPGDWDRTPAHVSS
soluble on expression in E. coli: soluble

MAGYVGDVAIAYDRDLGHVLFEQYASDIARRTAGKPVRDVLEVASGTGIVTRQLRNVLPGDAQLTAIDISDSMMEVARTKFLPHEQVTFQVANAVALPFDDRAFDTVVCQFGVMFFDKDKAFQETHRVLRQGGRYLFSVWDSRDYNPYASLTFEVMKQFFPSDPPRFLESTVSSFEIDPVKERLIRAGFEQISISVQRRIYDIPDIRAFARGLIFSPIINEIRERGEVDPDDIVEALVKIFIGEYGSNPTRFPMQAILFETEKPLEHHHHHH
soluble on expression in E. coli: not soluble

MGHRSRSNSRSQSRSRENSRGRSRSASKSPVYHRRERESSRSRSPRARYGGGGGGGGGGGRGRNQQYDRENPQPSKCLGVFNLSSYTTEKDLRDVFGEFGEINKCDLVYDRPSGNSRGFGFIYFNLIEDATAARDKLCNTDLDGHKIRVDFSLTKRGHSPTPGQYMGDRRGGGSSGGGRFGGGGGDRFNDRGSRGGDRYGGDRRGGGGGGGGDRYGGGGGDRYGGDRYGGGGGRRGSPDRRGGFRSGGGGGGYMRSGGGGGGPDRRDHRDNDRNGGGGGHRPYDPSFRRRVESYGSGNSGGGGGRRDRY
soluble on expression in E. coli: not soluble

MFSPTFKSFLLLCLLVVNSWAQDPTTTATSTTTVPSTSTVTTTTVASTSSGSTTASTAAGGSTSTTAAGGSTASTAAGGSTSTTAAGGSTASTAAGGPTGSTAAGGSTASTAAGGSTASTAAGGSTASTVAGATSVVPSSPAPPTQPPVNNGCELGWKFFNRPSGGWCIKVFPGYFALKEHAENACQANGAATLTGLQNKAEALFIQCEYRNSPYFSCFSCFQNSVLGYCSSTVEVLYEYSSMLSEMSAPSGSVWIGIHRTPACNRKPLSAQCNKNTAFRWTDKSATGVDGFVFQRGQPDNGGRALNQNCALLLASSKPFIDAGGRYYAAQMEDVHCNATFVPGNMARKTSGYACGKPNKCQPGWKFFDRQSGGWCMKVFTGFHAAKVDAEAACKDVGATLSGLENKEEAIFIQNALLARISQASGSVWIGIQRKAECLGKGLTASGTPTTSFEWTDNSASGVGGMVFQAGQPDNGVTALNQNCALLLASSQPYIDARGRFYAATMEDVPCVANFVASNEARRTRGYVCGKPL
soluble on expression in E. coli: not soluble

MSQENIIYFSDYICITKGADGFYIESYKKGMSVDEFNKIIGRHPEIKITSFMAIKNAILFAPKPPVKFGEVKDRISVELSSDELKAYIRLCVEEWEFSGDARVKLMEEISKSLEKAGVVFGIKEDVLLDGLCNNKQILIAEGIPPEHGEDAVIRMYEIKKAKPAIKEDGRVDHYELNLINKVKTGDWLGERIDPTPGTAGKSVKGNPIPARPGRNYPLHYDKNSVREERKGGVTYLYALKSGAVHYEGDRISVSNHLEIDGDVDFKTGNINFDGFVTIKGTVADGFSVVAVKDVEILGTIGIGSVKEVVSKEGSIYIKGGIAGKNKAVIKAKKDVYTKYISDATVACEGSLHVGLYCINSNITAREIIIDSPKGQISGGNIQCETKVLSPVLGSPSEKRTVISVKGFNRNTLKERLEEVMKNIETLKNELVKVKAEVNAYFENEQNGKVGSLKAEDIRQRFNRIKNELTELEEEKKAISDTLRTRGEGEISILKKAYPGVVIGIKNIIKEIDRPIVNTTFYIQDGYIKEV
soluble on expression in E. coli: soluble

MIKRKLQDLAVCCSYQVDFLHEKKHSVKEFKRKYEVLDEIGRGGFGIVYEATTRQDGQQPVAVKFVQHKHVRSWTMTCRQLIPSEVCHLETCEDIPGVIKILDWFANSKGFLIVMERPANCMDLFDMVSVHGPLNEDMGKFIFKQVITTVFNMYSKHGLLHRDIKDENLIVNMNTGEVKLVDFGATAYAEKATKKEFQGTRSYCPPEWFRDQLYLPLEATSWSLGVLLFILLTGKLPFRNEIQICLGNVKFPPDLSKEVCQLVKSCLTTSTSARASLAQIAAHPWMETDKPFFGGDLTFEEALMEIKNPPVVIEDKEAEEEDNDLNDVVILTRSRESRTDLDAESICTMVTAVEDRYEPSIAVKELEQEEIVETGETTNLMRSESRYDNISSSSFCDYVSLVSSSYDDQFTSTSDIYQSACEVFPHTGSSSSLSRSMGAVKSASAYNLVRMRKKSSIFKSFDTELDPVSENDHQPLIPETSSATCQSTYSNDEDVTISEKVVSPAQPLPPPLSPRKGSLQCFESVPRSRDSVIRMSRHRPLQFAIDSSSPPPALAIFQVSPTASVG
soluble on expression in E. coli: not soluble
